Data set [1] has as its target T1, RPA WT (RPA70-RPA32-RPA14) (human, UniProt P27694;P15927;P35244 1-616;1-270;1-121). Briefly: fluorescence anisotropy; 200 mM KCl; FA: 200 mM NaCl, KCl or LiCl, 20 mM HEPES pH 7.4, 1 mM DTT, 22-25 C, 375 or 750 pM oligo, Kd,app +/- SEM; EMSA: 20 mM HEPES pH 7.4, 200 mM KCl, 1 nM 32P oligo. The following applies: protein: recombinant, tags: 6xHis N-term on RPA70 and RPA14, copies: 1;1;1, label: 5' fluorescein, linear in LiCl. On the technique in general: In fluorescence polarisation assays a small probe gives low polarisation when free and higher when bound to something large.

Data set [2] addresses T2, CST (CTC1-STN1-TEN1) (human, UniProt Q2NKJ3;Q9H668;Q86WV5 1-1217;1-368;1-123). The description is as above. The following applies: protein: recombinant, tags: 2xFLAG N-term on CTC1, 6xHis N-term on STN1 and TEN1, copies: 1;1;1, label: 5' fluorescein, linear in LiCl.
Data set [3] deals with T1, RPA WT (RPA70-RPA32-RPA14). Briefly: fluorescence anisotropy; 200 mM NaCl; FA: 200 mM NaCl, KCl or LiCl, 20 mM HEPES pH 7.4, 1 mM DTT, 22-25 C, 375 or 750 pM oligo, Kd,app +/- SEM; EMSA: 20 mM HEPES pH 7.4, 200 mM KCl, 1 nM 32P oligo. The following applies: protein: recombinant, tags: 6xHis N-term on RPA70 and RPA14, copies: 1;1;1, label: 5' fluorescein, linear in LiCl.
Data set [4] addresses T2, CST (CTC1-STN1-TEN1). The data set is described as above. The following applies: protein: recombinant, tags: 2xFLAG N-term on CTC1, 6xHis N-term on STN1 and TEN1, copies: 1;1;1, label: 5' fluorescein.
The target of data set [5] is T1, RPA WT (RPA70-RPA32-RPA14). The data set can be described thus: fluorescence anisotropy; 200 mM LiCl; FA: 200 mM NaCl, KCl or LiCl, 20 mM HEPES pH 7.4, 1 mM DTT, 22-25 C, 375 or 750 pM oligo, Kd,app +/- SEM; EMSA: 20 mM HEPES pH 7.4, 200 mM KCl, 1 nM 32P oligo. The following applies: protein: recombinant, tags: 6xHis N-term on RPA70 and RPA14, copies: 1;1;1, label: 5' fluorescein, linear in LiCl.

In data set [6] the target is T2, CST (CTC1-STN1-TEN1). The data set is described as above. The following applies: protein: recombinant, tags: 2xFLAG N-term on CTC1, 6xHis N-term on STN1 and TEN1, copies: 1;1;1, label: 5' fluorescein, linear in LiCl.
Setting [7] is: intramolecular G4 at 3' end, 5' tail.
The mark [8] stands for this setting: parallel G4 in KCl (predominantly unimolecular).
[9] abbreviates: intramolecular G4 at 5' end, 18 nt 3' tail.

The source of these data is publication PMC10250233, “RPA engages telomeric G-quadruplexes more effectively than CST”.

T1 sequence (P27694 whole entry, chain 1 of 3): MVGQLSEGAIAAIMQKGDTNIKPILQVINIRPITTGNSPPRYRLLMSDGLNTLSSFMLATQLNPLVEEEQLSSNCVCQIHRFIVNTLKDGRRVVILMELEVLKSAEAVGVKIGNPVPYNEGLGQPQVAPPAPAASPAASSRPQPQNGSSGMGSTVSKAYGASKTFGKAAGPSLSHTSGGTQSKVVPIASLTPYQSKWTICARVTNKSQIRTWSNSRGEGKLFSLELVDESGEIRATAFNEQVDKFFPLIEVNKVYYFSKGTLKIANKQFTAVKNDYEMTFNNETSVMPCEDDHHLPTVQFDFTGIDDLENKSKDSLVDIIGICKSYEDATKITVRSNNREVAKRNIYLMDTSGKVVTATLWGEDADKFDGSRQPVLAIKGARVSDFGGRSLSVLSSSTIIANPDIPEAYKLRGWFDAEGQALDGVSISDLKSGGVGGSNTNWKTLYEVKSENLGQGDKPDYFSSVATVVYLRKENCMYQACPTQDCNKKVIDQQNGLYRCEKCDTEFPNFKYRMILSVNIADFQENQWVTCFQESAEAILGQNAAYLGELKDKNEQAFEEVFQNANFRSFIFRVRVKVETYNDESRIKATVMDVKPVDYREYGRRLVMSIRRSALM
T1 sequence (P15927 whole entry, chain 2 of 3): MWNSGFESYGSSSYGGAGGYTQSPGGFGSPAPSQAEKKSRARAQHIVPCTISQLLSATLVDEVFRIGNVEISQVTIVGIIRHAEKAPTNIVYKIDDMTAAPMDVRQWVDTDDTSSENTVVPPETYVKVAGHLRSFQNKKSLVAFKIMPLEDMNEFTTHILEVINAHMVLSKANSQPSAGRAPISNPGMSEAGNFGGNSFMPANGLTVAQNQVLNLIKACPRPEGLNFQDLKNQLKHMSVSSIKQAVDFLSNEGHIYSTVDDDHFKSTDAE
T1 sequence (P35244 whole entry, chain 3 of 3): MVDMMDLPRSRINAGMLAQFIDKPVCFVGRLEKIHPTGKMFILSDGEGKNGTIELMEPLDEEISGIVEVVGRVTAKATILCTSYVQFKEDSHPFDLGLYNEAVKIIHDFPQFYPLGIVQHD
T2 sequence (Q2NKJ3 whole entry, chain 1 of 3): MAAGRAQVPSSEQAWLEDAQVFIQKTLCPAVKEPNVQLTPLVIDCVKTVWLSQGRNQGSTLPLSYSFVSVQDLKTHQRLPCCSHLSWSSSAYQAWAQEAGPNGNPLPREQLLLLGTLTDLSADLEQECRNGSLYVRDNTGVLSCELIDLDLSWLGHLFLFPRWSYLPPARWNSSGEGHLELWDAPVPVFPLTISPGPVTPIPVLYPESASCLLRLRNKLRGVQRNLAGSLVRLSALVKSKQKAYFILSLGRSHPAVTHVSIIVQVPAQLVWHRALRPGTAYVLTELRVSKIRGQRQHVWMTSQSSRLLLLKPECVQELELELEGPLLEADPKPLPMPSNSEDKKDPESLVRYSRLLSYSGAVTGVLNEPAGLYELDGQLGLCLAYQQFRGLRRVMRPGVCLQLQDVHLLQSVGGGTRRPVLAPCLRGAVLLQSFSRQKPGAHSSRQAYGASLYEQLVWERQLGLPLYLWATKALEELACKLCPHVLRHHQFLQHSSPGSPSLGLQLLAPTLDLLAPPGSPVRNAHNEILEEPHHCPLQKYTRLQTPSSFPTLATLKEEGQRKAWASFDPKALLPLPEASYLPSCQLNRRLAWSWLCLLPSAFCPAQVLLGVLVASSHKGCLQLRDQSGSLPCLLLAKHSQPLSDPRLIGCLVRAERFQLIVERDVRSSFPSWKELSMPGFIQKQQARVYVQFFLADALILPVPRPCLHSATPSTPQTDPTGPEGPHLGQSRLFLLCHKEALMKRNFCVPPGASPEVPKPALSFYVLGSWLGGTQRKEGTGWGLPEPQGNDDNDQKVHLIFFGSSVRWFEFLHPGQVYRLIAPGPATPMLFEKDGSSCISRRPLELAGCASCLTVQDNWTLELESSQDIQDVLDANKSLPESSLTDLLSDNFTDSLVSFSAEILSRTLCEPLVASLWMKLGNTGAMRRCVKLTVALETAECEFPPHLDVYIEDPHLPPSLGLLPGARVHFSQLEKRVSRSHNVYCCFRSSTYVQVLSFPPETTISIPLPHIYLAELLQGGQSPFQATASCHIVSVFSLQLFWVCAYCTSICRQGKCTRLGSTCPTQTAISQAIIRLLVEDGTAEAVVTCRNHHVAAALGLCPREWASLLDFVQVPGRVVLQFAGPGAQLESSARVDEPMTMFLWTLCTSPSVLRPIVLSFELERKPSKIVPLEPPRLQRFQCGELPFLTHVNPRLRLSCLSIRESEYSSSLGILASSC
T2 sequence (Q9H668 whole entry, chain 2 of 3): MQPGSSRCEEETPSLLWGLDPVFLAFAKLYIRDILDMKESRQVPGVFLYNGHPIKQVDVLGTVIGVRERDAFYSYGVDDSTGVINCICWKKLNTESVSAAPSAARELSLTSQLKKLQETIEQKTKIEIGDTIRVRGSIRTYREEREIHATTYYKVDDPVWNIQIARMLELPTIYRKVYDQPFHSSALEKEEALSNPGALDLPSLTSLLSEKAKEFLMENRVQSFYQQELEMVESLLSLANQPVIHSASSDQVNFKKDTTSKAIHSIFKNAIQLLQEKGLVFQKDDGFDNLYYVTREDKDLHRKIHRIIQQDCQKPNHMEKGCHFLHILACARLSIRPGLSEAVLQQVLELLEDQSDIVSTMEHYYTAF
T2 sequence (Q86WV5 whole entry, chain 3 of 3): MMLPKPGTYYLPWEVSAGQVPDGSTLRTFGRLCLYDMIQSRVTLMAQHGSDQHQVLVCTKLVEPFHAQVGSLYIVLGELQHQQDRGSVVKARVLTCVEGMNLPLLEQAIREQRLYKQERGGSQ

As to AGTGTGAGTGTGAGTGTTAGGGTTAGGGTTAGGGTTAGGG (structured_DNA) [Tel40 3' G4], the Kd turned out to be 0.52 ± 0.11 nM in data set [1] (setting [7]); 3.4 ± 0.5 nM with CST (CTC1-STN1-TEN1) [2] (setting [7]); 0.4 ± 0.08 nM in data set [3] (setting [7]); 2.3 ± 0.4 nM in the data set with CST (CTC1-STN1-TEN1) [4] (intramolecular G4 at 3' end, 5' tail, linear in LiCl); 0.68 ± 0.16 nM in data set [5] (setting [7]); 1.09 ± 0.1 nM with CST (CTC1-STN1-TEN1) [6] (setting [7]).

For the molecule TAGGGTTAGGGTTAGGGTTAGGGTT (structured_DNA) [2JSL], in the data set with CST (CTC1-STN1-TEN1) [6] (hybrid 2 G4 in KCl), the Kd came out at 8.3 ± 0.6 nM.

In the case of CGGGGCGGGCCTTGGGCGGGGT (structured_DNA) [2M27], the Kd with CST (CTC1-STN1-TEN1) [2] (setting [8]) is 13.3 ± 0.9 nM; with CST (CTC1-STN1-TEN1) [6] (setting [8]) it was 10.8 ± 0.2 nM.

For the molecule AGGGTTAGGGTTAGGGTTAGGGTGAGTGTGAGTGTGAGTG (structured_DNA) [Tel40 5' G4], the Kd in data set [1] (setting [9]) worked out at 0.85 ± 0.21 nM; in data set [3] (setting [9]) it was 0.78 ± 0.08 nM; in the data set with CST (CTC1-STN1-TEN1) [4] (intramolecular G4 at 5' end, 18 nt 3' tail, linear in LiCl), 1.47 ± 0.23 nM; in data set [5] (setting [9]), 0.82 ± 0.15 nM; with CST (CTC1-STN1-TEN1) [6] (setting [9]), 1.53 ± 0.17 nM.

As for AGGGCTAGGGCTAGGGCTAGGG (structured_DNA) [2KM3], the Kd in the data set with CST (CTC1-STN1-TEN1) [6] (antiparallel G4 in KCl) is 4.5 ± 0.3 nM.

Consider TTGGGTTAGGGTTAGGGTTAGGGA (structured_DNA) [2GKU], for which, in the data set with CST (CTC1-STN1-TEN1) [6] (hybrid 1 G4 in KCl), the Kd turned out to be 11.9 ± 1.2 nM.

Take CCCTAACCCTAACCCTAACCCT (ssDNA) [C22]: the Kd with CST (CTC1-STN1-TEN1) [4] (linear) is 184 ± 28 nM.

With GGGTAGGGAGCGGGAGAGGG (structured_DNA) [6GZN], the Kd with CST (CTC1-STN1-TEN1) [6] (antiparallel G4 in KCl) turned out to be 1.1 ± 0.3 nM.

For AGTGTGAGTTAGGGTTAGGGTTAGGGTTAGGGTGAGTGTG (structured_DNA) [Tel40 Middle G4], the Kd was determined as 0.46 ± 0.05 nM in data set [1] (intramolecular G4 in middle); 4.4 ± 0.3 nM with CST (CTC1-STN1-TEN1) [2] (intramolecular G4 in middle); 0.28 ± 0.03 nM in data set [3] (intramolecular G4 in middle); 1.04 ± 0.21 nM with CST (CTC1-STN1-TEN1) [4] (intramolecular G4 in middle, linear in LiCl); 0.61 ± 0.13 nM in data set [5] (intramolecular G4 in middle); 1.94 ± 0.16 nM with CST (CTC1-STN1-TEN1) [6] (intramolecular G4 in middle).

Turning to TAGGGAGGGTAGGGAGGGT (structured_DNA) [2LBY], the Kd with CST (CTC1-STN1-TEN1) [2] (parallel G4 in KCl) was 26.5 ± 1.5 nM; with CST (CTC1-STN1-TEN1) [6] (parallel G4 in KCl), 11.5 ± 1.3 nM.
